Experimental data reported in patent US20230257479A1 (Genmab, published 2023).
Substitutions are numbered along the chain they refer to. In names and notes the source's numbering stands.

Tests used:
[1] = target: T1, human 5T4ECDHis (mature protein of SEQ ID NO: 99) (human, UniProt Q13641 32-355); experiment: BLI, antibody on anti-human IgG Fc Capture biosensor, antigen in solution; 50 s dissociation window
T1 construct: ECD of human 5T4 (aa 1-355 of Uniprot Q13641) with C-terminal His tag; residues 1-31 are the signal peptide; also called ECD of human 5T4 with a C-terminal His tag
T1 sequence: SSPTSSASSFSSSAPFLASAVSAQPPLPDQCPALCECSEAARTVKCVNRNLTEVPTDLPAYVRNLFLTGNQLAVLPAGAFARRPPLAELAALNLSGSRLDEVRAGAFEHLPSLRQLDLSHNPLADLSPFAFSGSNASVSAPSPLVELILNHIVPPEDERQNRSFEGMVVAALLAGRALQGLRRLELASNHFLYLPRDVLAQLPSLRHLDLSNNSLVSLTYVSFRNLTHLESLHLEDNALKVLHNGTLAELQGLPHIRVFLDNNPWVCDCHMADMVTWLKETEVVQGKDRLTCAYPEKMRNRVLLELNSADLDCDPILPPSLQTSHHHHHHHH

[2] = target: T1, human 5T4ECDHis (mature protein of SEQ …); experiment: BLI cross-block; competitor (immobilised): IgG1-5T4-106-FEAR
[3] = target: T1, human 5T4ECDHis (mature protein of SEQ …); experiment: BLI cross-block; competitor (immobilised): IgG1-5T4-085-FEAR
[4] = target: T1, human 5T4ECDHis (mature protein of SEQ …); experiment: BLI cross-block; competitor (immobilised): IgG1-5T4-A3-F405L
[5] = target: T2, full length human 5T4 (SEQ ID NO: 1) on cells (human, UniProt Q13641 32-420); experiment: flow cytometry, HEK-293 cells transfected with human 5T4, PE secondary [II)G]
T2 construct: Uniprot Q13641; residues 1-31 are the signal peptide; Used both for transfected HEK-293 cells and for 5T4-expressing human tumor cell lines
T2 sequence: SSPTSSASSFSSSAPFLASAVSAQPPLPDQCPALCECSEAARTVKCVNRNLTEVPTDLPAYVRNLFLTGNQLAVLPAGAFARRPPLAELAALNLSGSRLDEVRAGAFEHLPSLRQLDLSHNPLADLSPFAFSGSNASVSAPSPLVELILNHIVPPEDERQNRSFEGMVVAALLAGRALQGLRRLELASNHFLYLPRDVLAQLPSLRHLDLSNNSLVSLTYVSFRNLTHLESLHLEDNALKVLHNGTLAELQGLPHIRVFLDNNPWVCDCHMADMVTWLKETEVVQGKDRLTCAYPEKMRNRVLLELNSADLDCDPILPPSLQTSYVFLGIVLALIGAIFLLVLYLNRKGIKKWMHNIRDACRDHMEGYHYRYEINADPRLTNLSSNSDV

[6] = target: T3, full length cynomolgus monkey 5T4 on transfected HEK-293 cells (cynomolgus monkey, UniProt Q4R8Y9 35-420); experiment: flow cytometry, HEK-293 cells transfected with cynomolgus monkey 5T4, PE secondary [II)G]
T3 construct: Uniprot Q4R8Y9; residues 1-34 are the signal peptide; also called cynomolgus 5T4
T3 sequence: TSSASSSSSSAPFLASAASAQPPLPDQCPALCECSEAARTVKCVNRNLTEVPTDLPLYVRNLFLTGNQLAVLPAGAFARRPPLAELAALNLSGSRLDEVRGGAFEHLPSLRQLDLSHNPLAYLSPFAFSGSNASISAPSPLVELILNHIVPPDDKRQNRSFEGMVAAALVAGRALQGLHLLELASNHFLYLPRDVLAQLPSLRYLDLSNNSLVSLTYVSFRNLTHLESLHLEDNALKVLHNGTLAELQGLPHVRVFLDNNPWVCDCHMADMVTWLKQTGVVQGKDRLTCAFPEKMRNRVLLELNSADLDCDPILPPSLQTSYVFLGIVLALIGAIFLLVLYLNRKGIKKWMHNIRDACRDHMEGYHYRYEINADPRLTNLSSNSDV

[7] = target: T1, human 5T4ECDHis (mature protein of SEQ …); experiment: BLI cross-block; competitor (immobilised): IgG1-5T4-A1-F405L
[8] = target: T1, human 5T4ECDHis (mature protein of SEQ …); experiment: BLI cross-block; competitor (immobilised): IgG1-5T4-207-FEAR
[9] = target: T4, recombinant cynomolgus monkey 5T4 protein (Cusabio; cat. no. CSB-MP024093MOV) (cynomolgus monkey, UniProt Q4R8Y9 35-355); experiment: BLI, antibody on anti-human IgG Fc Capture biosensor, antigen in solution; 50 s dissociation window
T4 construct: extracellular domain; Bought protein; also called cynomolgus 5T4; cynomolgus monkey 5T4 extracellular domain
T4 sequence (looked up): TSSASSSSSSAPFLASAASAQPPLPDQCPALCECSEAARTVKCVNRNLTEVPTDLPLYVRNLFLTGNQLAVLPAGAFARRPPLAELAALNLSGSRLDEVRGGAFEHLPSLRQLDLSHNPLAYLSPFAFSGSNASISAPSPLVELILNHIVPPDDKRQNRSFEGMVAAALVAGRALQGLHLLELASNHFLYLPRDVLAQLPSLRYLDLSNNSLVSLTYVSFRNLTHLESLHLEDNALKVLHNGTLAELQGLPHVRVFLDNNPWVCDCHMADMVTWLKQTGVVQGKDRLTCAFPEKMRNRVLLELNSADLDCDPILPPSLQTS

[10] = target: T1, human 5T4ECDHis (mature protein of SEQ …); experiment: BLI cross-block; competitor (immobilised): IgG1-5T4-059-FEAR
[11] = target: T2, full length human 5T4 (SEQ ID NO: 1) on …; experiment: flow cytometry, MDA-MB-231 cells, PE secondary [III)F]
[12] = target: T1, human 5T4ECDHis (mature protein of SEQ …); experiment: BLI cross-block; competitor (immobilised): IgG1-5T4-226-FEAR
[13] = target: T1, human 5T4ECDHis (mature protein of SEQ …); experiment: BLI cross-block; competitor (immobilised): IgG1-5T4-127-FEAR
[14] = target: T1, human 5T4ECDHis (mature protein of SEQ …); experiment: BLI cross-block; competitor (immobilised): IgG1-5T4-076-FEAR
[15] = target: T1, human 5T4ECDHis (mature protein of SEQ …); experiment: BLI cross-block; competitor (immobilised): IgG1-5T4-H8-FEAR
[16] = target: T5, human 5T4 with P326 mutated to alanine, on HEK293 cells (human, UniProt Q13641 32-420); experiment: alanine scanning, flow cytometry on HEK293 cells, normalised to bsIgG1-5T4-A1-F405Lxb12-FEAR-FITC
T5 sequence: T2 sequence with P295A

[17] = target: T6, human 5T4 with L309 mutated to alanine, on HEK293 cells (human, UniProt Q13641 32-420); experiment: as above
T6 sequence: T2 sequence with L278A

[18] = target: T7, human 5T4 with L281 mutated to alanine, on HEK293 cells (human, UniProt Q13641 32-420); experiment: as above
T7 sequence: T2 sequence with L250A

B1: IgG1-5T4-127-FEAR (antibody, V domains shown)
VH: EVQLLESRGGLVQPGGSLRLSCAASGFTFSSYAMSWVRQAPGKGLEWVSTISGSGGSTYYADSVKGRFTISRDNSKKTLYLQMNSLRAEDTAVYYCAKDWGSGSYPAEYFQHWGQGTLVTVSS
VL: EIVLTQSPATLSLSPGERATLSCRASQSVSSYLAWYQQKPGQAPRLLIYDASNRATGIPARFSGSGSGTDFTLTISSLEPEDFAVYYCQQRSNWLMYTFGQGTKLEIK
notes: Monospecific, bivalent human IgG1 kappa with L234F, L235E, D265A, K409R (FEAR)
B1 was tested, and the Kd [1] was 27 nM, the koff [1] was 0.016 s⁻¹ and the kon [1] was 580000 M⁻¹ s⁻¹. It also gave a corrected association response [2] of -0.02 nm, a corrected association response [3] of 0 nm and a corrected association response [4] of 0.01 nm. For the same binder, the “EC50 (read off the curve)” value [5] was roughly 0.03 µg/mL, the “EC50 (read off the curve)” value [6] was roughly 0.02 µg/mL and the corrected association response [7] was 0.87 nm. For the same binder, the corrected association response [8] was 1.29 nm, the Kd [9] was 41 nM and the koff [9] was 0.015 s⁻¹. For the same binder, the kon [9] was 370000 M⁻¹ s⁻¹, the corrected association response [10] was -0.1 nm and the “EC50 (read off the curve)” value [11] was roughly 0.03 µg/mL. It also gave a corrected association response [12] of 1.51 nm, a corrected association response [13] of -0.01 nm and a corrected association response [14] of -0.02 nm. The corrected association response [15] was -0.01 nm.

B2: bsIgG1-b12-FEALx5T4-226-FEAR-FITC (bispecific antibody, V domains shown)
VH 1: QVQLVQSGAEVKKPGASVKVSCQASGYRFSNFVIHWVRQAPGQRFEWMGWINPYNGNKEFSAKFQDRVTFTADTSANTAYMELRSLRSADTAVYYCARVGPYSWDDSPQDNYYMDVWGKGTTVIVSS
VL 1: EIVLTQSPGTLSLSPGERATFSCRSSHSIRSRRVAWYQHKPGQAPRLVIHGVSNRASGISDRFSGSGSGTDFTLTITRVEPEDFALYYCQVYGASSYTFGQGTKLERK
VH 2: QVQLQQWGAGLLKPSETLSLTCAVYGGSFSGYYWSWIRQPPGKGLEWIGEIDHSGSTNYNPSLKSRVTISVDTSKNQFSLKLSSVTAADTAVYYCAAWFGELWDYYYGMDVWGQGTTVTVSS
VL 2: EIVLTQSPATLSLSPGERATLSCRASQSVSSFLAWYQQKPGQAPRLLIYDASNRATGIPARFSGSGSGTDFTLTISSLEPEDFAVYYCQQRSNWPLTFGQGTRLEIK
notes: b12 arm IgG1 FEAL, 5T4 arm IgG1 FEAR
With B2 the “Z-score (fold change) of binding” value [16] was -1.67, the “Z-score (fold change) of binding” value [17] was -1.63 and the “Z-score (fold change) of binding” value [18] was -1.65.
